In the supplement of paper PMC12764529:
± gives the half width of the 95% confidence interval.

Experiments:
[1] = folding stability dG unfold from trypsin proteolysis; higher = more stable
Method in brief: (§1)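 How resistant each design was to proteolysis was captured as K50, inferred by Bayesian fitting of sequencing counts. Unfolding free energy was then derived relative to a sequence-predicted unfolded-state K50 and a shared folded-state K50, per protease or combined. Digestion used trypsin and chymotrypsin at 11 threefold-diluted concentrations plus a no-protease condition, on mini-proteins under 80 residues without cysteine in a PA-tagged cDNA display construct. Designs were kept only when AlphaFold2 dimer inter-PAE was above 15.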

[2] = folding stability dG unfold from chymotrypsin proteolysis; higher = more stable
Method in brief: as §1

[3] = folding stability dG unfold (combined trypsin and chymotrypsin); higher = more stable
Method in brief: as §1

Row | Sequence | folding stability dG unfold [1] [kJ/mol] | folding stability dG unfold [2] [kJ/mol] | folding stability dG unfold [3] [kJ/mol]
1 | SAGGSAGGSAGEIVEVDGKLYIRVRTKDGEWKLIEMSADEIASLPAENVEEVEIVDPKDLSAGGSAGGSAGG [r11_779_TrROS_Hall] | 10.9 ± 0.418 | 13.2 ± 0.314 | 12.9 ± 0.46
2 | SAGMVRIETYTHPDGTLRLVVYRPETGERAVFEFPLEDPEKFREAVEELAERLREEGFPVEVDIRPTLPSAG [r5_815_TrMRF] | 12.6 ± 0.36 | 17.98 ± 0.0962 | 16.6 ± 0.205
3 | SAGGSAGGMTFTFPPGARVRIAIYNKNGELIEEREIDEPGAKITIEKDEETGEWRIVSIELLEPSAGGSAGG [r6_523_TrROS_Hall] | 13.1 ± 0.351 | 15.7 ± 0.209 | 14.4 ± 0.753
4 | SAGGGFSVSTGTLTDPVTGKPITLTVTNLPDGVSRVTVTLEDGKTFEFTFPANNPPTPEQVAEAVKAFSAGG [r13_492_TrMRF] | 15.2 ± 0.326 | 15.19 ± 0.1 | 15.2 ± 0.167
5 | SAKKPLYLIIVKIGPDGKEIVIVAESEEEARKAAEEELRKLFPDLEIKEIKIIPLEKVKTKEEALELLKSAG [r14_900_TrROS_Hall] | 9.03 ± 0.276 | 8.03 ± 0.293 | 7.9 ± 0.669
6 | SAGGSAGGSKPDEVEVIEIKVPPGARVRLPDGSVVEIKPGDPNTTYRIVVDKKNKKITIEPLDSAGGSAGGS [r12_338_TrROS_Hall] | 5.79 ± 0.502 | 5.98 ± 0.502 | 6.12 ± 1.13
7 | SAGGSAGGSKEKKTVILRIKIYVKNENGELIEEIEIPLKDLTLEELKELAKKLNVKVEIELLPSAGGSAGGS [r12_398_TrROS_Hall] | 7.07 ± 0.669 | 14.6 ± 0.586 | 12.7 ± 0.837
8 | SAGGSAGGSAGTITINGKPITIEKLDNGYYKVKVNGKWYEIKPGEKIELPKGATVSIEKVSAGGSAGGSAGG [r11_147_TrROS_Hall] | 5.07 ± 0.289 | 10.9 ± 0.146 | 9.5 ± 0.586
9 | SAGGSAGGSKIKPGEKVEIKLKIKVKDKNGKEKEIELTFSKDMTVEEIKKLLKELEKKGFEIESAGGSAGGS [r20_27_TrROS_Hall] | 6.51 ± 0.502 | 13.5 ± 1 | 11.4 ± 1.38
10 | SAGSIPEEIAKELGLPDLKVLKVETKPLPNGPLNIKIIELELPGGFKIKVTVVEEPEKIIIKTEPVPLSAGG [r19_392_JUSTAS] | 4.04 ± 0.142 | 2.68 ± 0.753 | 4.05 ± 1.13
11 | SAGGSAKVTIDTDNGIIKIEVGGKLIAEIEIPPGFPGGIYLEYEPNPPTLKFYIYTKNGPVYINDISAGGSA [r2_399_TrMRF] | 14.7 ± 1.8 | 16.6 ± 0.711 | 15.4 ± 1.34
12 | SAGGALILLFPHPESRTVTALFVHPDGGSETIPFPVPESIDSLEEVADRLLREARERFPVPVEVVVASAGGS [r8_166_TrMRF] | 3.95 ± 0.0502 | 5.74 ± 0.138 | 5.03 ± 0.159
13 | SAGGSAGGSALEIPFPIKDVKWERNPDGSRTRTFYLKNGWRASLIFNPKNGQMQIDIEPLDSAGGSAGGSAG [r3_438_TrROS] | 7.52 ± 0.305 | 6.58 ± 0.502 | 7.59 ± 0.711
14 | SAMELEFETDGSVSVEELIEEFKKAFPLVKEIEAEAEPIPYIPKYKVRFKIKLVPVPTPEEIEEFGKKKSAG [r14_645_TrMRF] | 4.25 ± 0.272 | 5.71 ± 0.879 | 5.02 ± 0.711
15 | SAGKITITVEKNEDGELTVTIRIEKDGKPIEEITFESEEEALEAAKKLAEELKKKYPDLKIEVEIVPRPSAG [r5_383_TrROS_Hall] | 14.5 ± 1.13 | 11.1 ± 0.92 | 14.8 ± 2.68
16 | SAGGMKKGQKVTITIEKNEDGTLRITVKVDGKEFVFEFPKDMSLEELLKKAEEAAKKLNLPVEIEPVSAGGS [r16_446_TrROS_Hall] | 5.38 ± 0.289 | 11.1 ± 0.628 | 9.64 ± 1.05
17 | GKYYLVNIVVVNEDNKSLVFPKVFPENDPEKVLEEIKKLLEELGFKAKKLITVFEKLPDGNVLVNAVVEVGS [r1_281_TrMRF] | 15.8 ± 0.628 | 23.5 ± 1.05 | 23.3 ± 1.26
